B1: EHBP1 CH (calponin homology) domain [human] / EHBP1 bMERB domain (bMERB_(1060-1212), full-length bMERB domain) [human] (parent complex)
chain 1: GRKPNASQSLLVWCKEVTKNYRGVKITNFTTSWRNGLSFCAILHHFRPDLIDYKSLNPQDIKENNKKAYDGFASIGISRLLEPSDMVLLAIPDKLTVMTYLYQIRAHFSGQ
chain 2: not shown

Variants of: B1
Assay: ITC
Variant chain 1 M98A has a Kd of 7.6 µM.

Variants of: B1
Assay: ITC
Remark: another data set of the same source
chain 1 Q103A was tested, and the Kd was 3.85 µM.

Variants of: B1
Assay: ITC
Remark: another data set of the same source
chain 1 D93A was tested, and the Kd was 43.5 µM.

Variants of: B1
Assay: ITC
Remark: another data set of the same source
Work on chain 1 Y102A yielded a Kd of 5.65 µM.

From PMC7442826 (2020)
